{
  "source": "paper PMC3418249",
  "about": "“Binding of Translationally Controlled Tumour Protein to the N-Terminal Domain of HDM2 Is Inhibited by Nutlin-3” (PLoS ONE, 2012)",
  "binders": {"B1": {"name": "carboxyfluorescein (FAM) labeled 12-1 peptide (peptide)", "peptide": "{FAM}-RFMDYWEGL-NH2", "notes": "also called FAM-labeled p53 peptide (12.1); fluorescently labelled p53 peptide"}, "B2": {"name": "TH3 peptide (TCTP residues 107–133) (peptide)", "peptide": "GGGSRPERVKPFMTGAAEQIKHILANFKNYQ", "modifications": "also: biotin, position not given here", "notes": "spacer at the N-terminus; source: synthetic peptide (Mimotopes)"}, "B3": {"name": "TH2 peptide (TCTP residues 81–110) (peptide)", "peptide": "GGGSTSFTKEAYKKYIKDYMKSIKGKLEEQRPER", "modifications": "also: biotin, position not given here", "notes": "spacer at the N-terminus; TCTP residues 81-110; source: synthetic peptide (Mimotopes)"}, "B4": {"name": "HDM2 α2 helix peptide (residues 43–65) (peptide)", "peptide": "GGGSAQKDTYTMKEVLFYLGQYIMTKR", "modifications": "biotin (position not given)", "notes": "spacer at the N-terminus; HDM2 α2 helix, residues 43-65; source: synthetic peptide (Mimotopes)"}, "B5": {"name": "recombinant his-tagged HDM2 (residues 17–125) (domain or fragment, human, UniProt Q00987 17-125, looked up)", "chain": "SQIPASEQETLVRPKPLLLKLLKSVGAQKDTYTMKEVLFYLGQYIMTKRLYDEKQQHIVYCSNDLLGDLFGVPSFSVKEHRKIYTMIYRNLVVVNQQESSDSGTSVSEN", "notes": "also called recombinant HDM2 N-terminal domain; source: recombinant"}},
  "conditions_in_all_cases": "both partners purified",
  "key": {"purified HDM2 (1–125) [1]": {"molecular_target": "T1, purified HDM2 (1–125) (human, UniProt Q00987 1-125)", "T1 construct": "source: expressed as GST fusion (pGEX-6P-1), purified (GSTrap, on-column cleavage with precission protease, monoS)", "assay": "fluorescence polarisation; competition: 50 nM FAM-12-1 peptide, 250 nM HDM2 (1–125), competitors TH2/TH3 (50/200/600 µM), control peptide (600 µM), Nutlin-3 (200 µM), p53 peptide; PBS-0.005% Tween-20"}, "purified HDM2 (1–125) [2]": {"molecular_target": "T1, purified HDM2 (1–125)", "assay": "pull-down; biotinylated peptides (10 µg) on streptavidin Dynabeads M-280, incubated with purified HDM2 (1–125) (15 µM) or TCTP (15 or 30 µM) 4 h at 4°C; Western blot; repeated with DMSO or Nutlin-3 (2/20/200 µM)"}, "[3]": {"molecular_target": "T2, recombinant full-length TCTP, purified (human (cDNA from AGS cells), UniProt P13693 1-172)", "T2 construct": "TCTP, called recombinant full-length TCTP; also called recombinant TCTP; TCTP protein; source: expressed as GST fusion (pGEX-6P-1), purified (GSTrap, on-column cleavage with precission protease, monoQ)", "T2 sequence (looked up)": "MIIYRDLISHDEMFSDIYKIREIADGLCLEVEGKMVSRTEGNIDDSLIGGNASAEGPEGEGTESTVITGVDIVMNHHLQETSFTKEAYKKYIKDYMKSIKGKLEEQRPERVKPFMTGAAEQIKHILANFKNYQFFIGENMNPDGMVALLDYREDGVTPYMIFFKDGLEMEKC", "assay": "pull-down; biotinylated peptides (10 µg) on streptavidin Dynabeads M-280, incubated with purified HDM2 (1–125) (15 µM) or TCTP (15 or 30 µM) 4 h at 4°C; Western blot; repeated with DMSO or Nutlin-3 (2/20/200 µM)"}, "[4]": {"molecular_target": "T2, recombinant full-length TCTP, purified", "assay": "pull-down; cobalt beads coated with 20 µM his-tagged HDM2 (17–125), 4 h at 4°C with 7 µM TCTP protein, with or without 200 µM Nutlin-3; Western blot"}},
  "note": "No end group written: not given here. FAM = carboxyfluorescein",
  "data": [
    {"binder": "B1", "values": [
      {"measurement": "binding result", "setting": "purified HDM2 (1–125) [1]", "result": "binds"}
    ]},
    {"binder": "B2", "values": [
      {"measurement": "binding result", "setting": "purified HDM2 (1–125) [2]", "result": "binds"}
    ]},
    {"binder": "B3", "values": [
      {"measurement": "binding result", "setting": "purified HDM2 (1–125) [2]", "result": "binds"}
    ]},
    {"binder": "B4", "values": [
      {"measurement": "binding result", "setting": "[3]", "result": "binds"}
    ]},
    {"binder": "B5", "values": [
      {"measurement": "binding result", "setting": "[4]", "result": "binds"}
    ]}
  ]
}
